To fix the notation:
B1: PRT-667 (protein)
chain: MQITSVWTKGVTPLTPEQFRYNNEDVFHAPYLAHQGWYDITKAFNGKDNLLCGAATAGNMLHWWFDQNKEEIEAYLKKHPEKQKIIFNNQELFDLRKAINTKDSQTNSQLFNYFRDKAFPNLSARQLGVMPDLVLDMFINGYYLNLNKTQSTDVNRPYQDKDKRGGIFDHVFTRGDQTTLLTARHDLKNKTLNDISQLIKQELQEGKALALSHTYANVSISHVINLWGADFNAEGNLEAIYVTDSDSDASIGMKKYFVGKNASGHVAISAKKIEGENIGAQVLGLFTLSSGKEIWQKLSLEHHHHHH
B2: PRT-485 (protein)
chain: MVTSVWTKGVTPPANFTQGEDVFHAPYKANQGWYDITKTFNGKDNLLCGAATAGNMLHWWFDQNKDQIEAYLKEHPEKQKIIFNNQELFDLKAAIDTKDDQTNSKLFEYFKEKAFPYLSTKHLGVFPDHVLDMFINGYRLSLTNHGPTPVKEGSKDKRGGIFDAVFTRGVQSKLLTSRHDLKNKTLKEISDLIKQELTEGKALALSHTYANVRINHVINLWGADFDSNGNLEAIYVTDSDTNASIGMKKYFVGVNSAGKVAISAKEIEDDNIGAQVLGLFTLSTGQDIWNQTNLEHHHHHH
B3: PRT-492 (protein)
chain: MVTSVWTKGVTPPTDFRKIVDGNIAYYHAPYKAGQGWYDITKAFDGGDNLLCGAATAGNMLHWWFDQNKEQIENYLKKHPEKQKIIFNNQELFDLKAAIDTKDSQTNSELFNYFKEKAFPYLSTKHLGVFPDHVIDMFINGYRLSLTNHGPTPVKRGSKDKRGGIFDAVFTRGVQSKLLTNRHDLKNKTLKEISDLIKQELTEGKALGISHTYANVRINHVINLWGADFDAEGNLEAIYVTDSDTNASIGMKKYFVGVNSNGKVAISAKEIEEDNIGAQVLGLFTLSTGQDIWNQTNLEHHHHHH
B4: PRT-470 (protein)
chain: MVTSVWTKGVTPPTDFIYGEDVLHAPYKAGQGWYDITKTFNGKDDLLCGAATAGNMLHWWFDQNKEQIENYLKKHPEKQKINFNGEQMFDVKEAIDTKDSQLDSKLFEYFKEKAFPYLSTKHLGVFPDHVIDMFINGYRLSLTNHGPTPVKRGSKDPRGGIFDAVFTRGDQSKLLTNRHDFKEKTLKEISDLIKQELTEGKALGISHTYANVRINHVINLWGADFDAEGNLEAIYVTDSDSNASIGMKKYFVGVNSNGKVAISAKEIEEDNIGAQVLGLFTLSTGQDIWNQTNLEHHHHHH
B5: PRT-450 (protein)
chain: MVTSVWTKGVTPPTDFRKIVDGNIAYYHAPYKAGQGWYDITKAFDGGDDLLCGAATAGNMLHWWFDQNKDQIEAYLKEHPEKQKINFNGEQMFDVKEAIDTKDDQTNSELFNYFKEKAFPYLSTKHLGVFPDHVLDMFINGYRLSLTNHGPTPVKEGSKDPRGGIFDAVFTRGDQSKLLTSRHDLKNKTLKEISDLIKQELTEGKALALSHTYANVRINHVINLWGADFDSNGNLEAIYVTDSDSNASIGMKKYFVGVNSAGKVAISAKEIEDDNIGAQVLGLFTLSTGQDIWNQTNLEHHHHHH

The data set has as its target pooled human IgG (human IgG1,2,3 and 4).
As for B1, the Enzyme Activity Endpoint Assay (purified): Fab′2 was 61 ng/µL, the Enzyme Activity Endpoint Assay (purified): Fc turned out to be 197 ng/µL, the Enzyme Activity Endpoint Assay (purified): IgG was determined as 279 ng/µL and the Enzyme Activity Endpoint Assay (purified): scIgG is 896 ng/µL.

B2 returned an Enzyme Activity Endpoint Assay (purified): Fab′2 of 0 ng/µL, an Enzyme Activity Endpoint Assay (purified): Fc of 0 ng/µL, an Enzyme Activity Endpoint Assay (purified): IgG of 1400 ng/µL and an Enzyme Activity Endpoint Assay (purified): scIgG of 0 ng/µL.

In turn, B3 registered an Enzyme Activity Endpoint Assay (purified): Fab′2 of 54 ng/µL, an Enzyme Activity Endpoint Assay (purified): Fc of 207 ng/µL, an Enzyme Activity Endpoint Assay (purified): IgG of 362 ng/µL and an Enzyme Activity Endpoint Assay (purified): scIgG of 1020 ng/µL.

In turn, B4 had an Enzyme Activity Endpoint Assay (purified): Fab′2 of 1080 ng/µL, an Enzyme Activity Endpoint Assay (purified): Fc of 363 ng/µL, an Enzyme Activity Endpoint Assay (purified): IgG of 0 ng/µL and an Enzyme Activity Endpoint Assay (purified): scIgG of 0 ng/µL.

The protein B5 returned an Enzyme Activity Endpoint Assay (purified): Fab′2 of 300 ng/µL, an Enzyme Activity Endpoint Assay (purified): Fc of 282 ng/µL, an Enzyme Activity Endpoint Assay (purified): IgG of 227 ng/µL and an Enzyme Activity Endpoint Assay (purified): scIgG of 481 ng/µL.

Values taken from patent US20250027068.
